{
  "source": "paper PMC5449587",
  "about": "(Nucleic Acids Research, 2017)",
  "proteins": {"B1": {"name": "Burkholderia thailandensis deoxyribonuclease II (enzyme)", "chain": "MAISPRDEQNRSVDLWFAYKVPKLTKDADSDSASGYEYVYYDRQVGAVQKSPNLMNDPKGALFYTLDSVFGDPGDTTGWILYNDEMPADANRSNNATLGHTKGVIAFDIASSSALWLLHSWPKYASPSVPGVPTPLYGQTFLCLSLDLATAGKLAAQMALHQQPQVYLPRTGGLDHTSPLYALTQPLNASAPGDSDSLDFKTRGGVPFKVIAKNRKWGKDFWNDLVGPTLKADMYVETWIRGKIPPVLDSDGVHKTYDIKFIDLRKLGAPWAWPETQDHAKWGITTTDNWVCVGDINRMVTQEKRGGGTIAFQDPKLWKALCETDLIIPPPGKTDAQARAMIRKTHEPAE"}},
  "biological_target": "the molecule itself",
  "assay": "crystal structure",
  "data": [
    {"protein": "B1", "values": [
      {"measurement": "binding result", "value": "binds"}
    ]}
  ]
}
